Assay results taken from patent US20190177408A1 (SUZHOU CONNECT BIOPHARMACEUTICALS, published 2019).
Changes are numbered by the printed parent chain.

T1: human soluble IL-4Rα (sIL-4Rα) (human, UniProt P24394 26-232)
T1 construct: Bought reagent (PEPRO TECH, Catalog Number 200-04R); also called shIL-4Rα; soluble hIL-4 Rα
T1 sequence: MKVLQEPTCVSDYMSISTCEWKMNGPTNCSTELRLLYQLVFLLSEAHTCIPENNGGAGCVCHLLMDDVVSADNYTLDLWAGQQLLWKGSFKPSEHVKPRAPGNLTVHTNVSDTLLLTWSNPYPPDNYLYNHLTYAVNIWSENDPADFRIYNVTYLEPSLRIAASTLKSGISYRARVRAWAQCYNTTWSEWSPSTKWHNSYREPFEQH

B1: L1000H1007 (antibody, V domains shown)
VH: EVQLVQSGGGLVHPGGSLRLSCAGSGFTFSRNAMFWVRQAPGKGLEWVSGIGTGGATSYADSVKGRFTISRDNAKNSLYLQMNSLRAEDMAVYYCARGRYYFDYWGQGTLVTVSS
VL: not shown
notes: human kappa
B2: L1000H1024 (antibody, V domains shown)
VH: B1 VH with H13Q, M90T, D103P, Y104W
VL: not shown
notes: human kappa
B3: L1000H1012 (antibody, V domains shown)
VH: B1 VH with M90T
VL: not shown
notes: human kappa
B4: L1000H1010 (antibody, V domains shown)
VH: B1 VH with H13Q, S58N
VL: not shown
notes: human kappa
B5: L1000H1028 (antibody, V domains shown)
VH: B1 VH with H13Q, G24A, M90T, D103P, Y104W
VL: not shown
notes: human kappa
B6: L1011H1000 (antibody, V domains shown)
VH: B1 VH with S58N
VL: EIVLTQSPGTLSLSPGERATLSCRASQSVSNSYLAWYQQKPGQAPRLLIFGASSRAPGIPDRFSGSGSGTDFTLTISRLEPEDFAVYYCQQYGSSPPWTFGQGTKVEIK
notes: human kappa
B7: L1012H1000 (antibody, V domains shown)
VH: B1 VH with S58N
VL: not shown
notes: human kappa
B8: L1000H1037 (antibody, V domains shown)
VH: B1 VH with S58N, N73E
VL: not shown
notes: human kappa
B9: L1020H1031 (antibody, V domains shown)
VH: B1 VH with Q6E, H13Q, G24A, M90T
VL: B6 VL with N31S, F50Y, P57T, G93D, S94H, P96A, P97G
notes: human kappa
B10: L1000H1026 (antibody, V domains shown)
VH: B1 VH with Q6E, H13Q, M90T, D103P, Y104W
VL: not shown
notes: human kappa
B11: L1010H1000 (antibody, V domains shown)
VH: B1 VH with S58N
VL: not shown
notes: human kappa
B12: L1000H1025 (antibody, V domains shown)
VH: B1 VH with G24A, M90T, D103P, Y104W
VL: not shown
notes: human kappa
B13: L1000H1021 (antibody, V domains shown)
VH: B1 VH with S58N, M90T, D103P, Y104W
VL: not shown
notes: human kappa
B14: L1020H1020 (antibody, V domains shown)
VH: B1 VH with D103P, Y104W
VL: B6 VL with N31S, F50Y, P57T, G93D, S94H, P96A, P97G
notes: human kappa
B15: L1012H1020 (antibody, V domains shown)
VH: B1 VH with D103P, Y104W
VL: not shown
notes: human kappa
B16: L1012H1007 (antibody, V domains shown)
VH: B1 VH
VL: not shown
notes: human kappa
B17: L1016H1000 (antibody, V domains shown)
VH: B1 VH with S58N
VL: B6 VL with N31S, P57T, G93D, S94H
notes: human kappa
B18: L1000H1020 (antibody, V domains shown)
VH: B1 VH with D103P, Y104W
VL: not shown
notes: human kappa
B19: L1015H1000 (antibody, V domains shown)
VH: B1 VH with S58N
VL: B6 VL with N31S, G93D, S94H
notes: human kappa
B20: L1000H1027 (antibody, V domains shown)
VH: B1 VH with Q6E, G24A, M90T, D103P, Y104W
VL: not shown
notes: human kappa
B21: L1017H1000 (antibody, V domains shown)
VH: B1 VH with S58N
VL: not shown
notes: human kappa
B22: L1007H1000 (antibody, V domains shown)
VH: B1 VH with S58N
VL: not shown
notes: human kappa
B23: L1020H1000 (antibody, V domains shown)
VH: B1 VH with S58N
VL: B6 VL with N31S, F50Y, P57T, G93D, S94H, P96A, P97G
notes: human kappa
B24: L1020H1027 (antibody, V domains shown)
VH: B1 VH with Q6E, G24A, M90T, D103P, Y104W
VL: B6 VL with N31S, F50Y, P57T, G93D, S94H, P96A, P97G
notes: human kappa
B25: L1008H1000 (antibody, V domains shown)
VH: B1 VH with S58N
VL: not shown
notes: human kappa
B26: L1000H1036 (antibody, V domains shown)
VH: B1 VH with K43E, S58N
VL: not shown
notes: human kappa
B27: L1000H1022 (antibody, V domains shown)
VH: B1 VH with M90T, D103P, Y104W
VL: not shown
notes: human kappa
B28: L1000H1031 (antibody, V domains shown)
VH: B1 VH with Q6E, H13Q, G24A, M90T
VL: not shown
notes: human kappa
B29: L1020H1007 (antibody, V domains shown)
VH: B1 VH
VL: B6 VL with N31S, F50Y, P57T, G93D, S94H, P96A, P97G
notes: human kappa
B30: L1000H1008 (antibody, V domains shown)
VH: B1 VH with S58N, M90T
VL: not shown
notes: human kappa
B31: L1020H1016 (antibody, V domains shown)
VH: B1 VH with S58N, D103P, Y104W
VL: B6 VL with N31S, F50Y, P57T, G93D, S94H, P96A, P97G
notes: human kappa
B32: L1000H1029 (antibody, V domains shown)
VH: B1 VH with Q6E, H13Q, G24A, D103P, Y104W
VL: not shown
notes: human kappa
B33: L1012H1029 (antibody, V domains shown)
VH: B1 VH with Q6E, H13Q, G24A, D103P, Y104W
VL: not shown
notes: human kappa
B34: L1012H1031 (antibody, V domains shown)
VH: B1 VH with Q6E, H13Q, G24A, M90T
VL: not shown
notes: human kappa
B35: L1000H1035 (antibody, V domains shown)
VH: B1 VH with F35H, S58N
VL: not shown
notes: human kappa
B36: L1000H1030 (antibody, V domains shown)
VH: B1 VH with Q6E, H13Q, G24A, S58N, M90T, D103P, Y104W
VL: not shown
notes: human kappa
B37: L1000H1013 (antibody, V domains shown)
VH: B1 VH with Q6E, G24A, S58N
VL: not shown
notes: human kappa
B38: L1013H1000 (antibody, V domains shown)
VH: B1 VH with S58N
VL: B6 VL with P57T, G93D, S94H
notes: human kappa

Molecular target: T1, human soluble IL-4Rα (sIL-4Rα)
Test: ELISA, coated sIL-4Rα, culture supernatant
Experimental: 100 μl of 100 μg/ml sIL-4Rα solution was added to 9.90 ml of PBS, mixed up and down, and then an antigen coating buffer of 1.0 μg/ml was obtained. The prepared antigen coating buffer was added to a 96-well ELISA plate (Corning) with a volume of 100 μl per well. The 96-well ELISA plate was incubated overnight in a refrigerator at 4° C. On the next day; the solution therein was discarded; and PBS containing 2% BSA was added to the 96-well ELISA plate row by row with a volume of 300 μl per well. The 96-well ELISA plate was incubated for 2 hours in a refrigerator at 4° C., Then the PBS containing 2% BSA was discarded and the plate was washed 3 times with PBST. Diluted antibodies to be tested were sequentially added to the corresponding wells, while the normal cell culture supernatants, as negative control samples, were added too. Three duplicate wells were made for each sample with a volume of 100 μl per well. The ELISA plate was wrapped with preservative film (or covered) and incubated for 1 h at […] in a constant temperature incubator. Subsequently, the 96-well ELISA plate was taken out, and the solution therein was discarded. After washing with PBST for 3 times, TMB solution (Solarbio, Catalog Number: PR1200) was added to the 96-well ELISA plate row by row with a volume of 100 μl per well. The 96-well ELISA plate was placed at room temperature for 5 minutes, and 2 M H2SO4 solution was added in immediately to terminate the reaction. The 96-well ELISA plate was placed in flexstation 3 (Molecular Devices), the values of OD450 were read, and the data were collected, calculated and analyzed. Results were expressed relative to the affinity of control antibody 1.

OD 450/OD450Control antibody 1	Binder
0.37	B1
0.26	B2
0.18	B3
0.11	B4
0.33	B5
0.9	B6
1.22	B7
-0.01	B8
1.12	B9
0.11	B10
1	B11
0.21	B12
0.35	B13
0.26	B14
0.11	B15
0.4	B16
0.27	B17
0.23	B18
0.67	B19

OD 450/OD450Control antibody 1	Binder
0.44	B20
0.49	B21
0.8	B22
2.27	B23
0.4	B24
0.9	B25
0.1	B26
0.18	B27
1.14	B28
0.4	B29
0.21	B30
0.8	B31
0.8	B32
0.11	B33
0.16	B34
0.22	B35
0.2	B36
0.38	B37
0.24	B38
